From US20190375812A1 come the findings set out here.

This test has as its target IL2Rαβγ, the high affinity IL-2 receptor, on human Treg cells (human) (UniProt P01589). Kind of test: cell-based or functional assay.

Chain of IL2Rαβγ, the high affinity IL-2 receptor, on human Treg cells (human) (P01589 22-272, chain 1 of 3): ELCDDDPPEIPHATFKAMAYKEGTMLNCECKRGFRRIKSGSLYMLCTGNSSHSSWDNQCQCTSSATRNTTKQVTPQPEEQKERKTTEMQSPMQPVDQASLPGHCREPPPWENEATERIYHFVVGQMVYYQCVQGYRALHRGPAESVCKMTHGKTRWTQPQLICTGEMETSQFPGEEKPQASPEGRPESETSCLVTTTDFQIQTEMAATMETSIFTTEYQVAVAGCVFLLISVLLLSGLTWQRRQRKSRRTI
Chain of IL2Rαβγ, the high affinity IL-2 receptor, on human Treg cells (human) (P14784 27-551, chain 2 of 3, further chain): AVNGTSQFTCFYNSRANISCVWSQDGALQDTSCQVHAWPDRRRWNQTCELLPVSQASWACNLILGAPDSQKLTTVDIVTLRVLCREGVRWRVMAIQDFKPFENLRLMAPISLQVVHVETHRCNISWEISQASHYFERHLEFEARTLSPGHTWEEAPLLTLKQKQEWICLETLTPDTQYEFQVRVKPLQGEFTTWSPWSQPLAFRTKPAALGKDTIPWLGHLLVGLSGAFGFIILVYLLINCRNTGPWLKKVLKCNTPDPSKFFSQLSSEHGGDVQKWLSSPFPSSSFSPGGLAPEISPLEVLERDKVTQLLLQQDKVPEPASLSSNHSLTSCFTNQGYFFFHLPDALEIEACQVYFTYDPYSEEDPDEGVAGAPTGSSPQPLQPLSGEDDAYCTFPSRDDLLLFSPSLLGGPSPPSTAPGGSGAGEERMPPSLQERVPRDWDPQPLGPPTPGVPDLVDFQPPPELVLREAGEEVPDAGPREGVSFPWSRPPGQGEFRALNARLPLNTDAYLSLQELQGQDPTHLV
Chain of IL2Rαβγ, the high affinity IL-2 receptor, on human Treg cells (human) (P31785 23-369, chain 3 of 3, further chain): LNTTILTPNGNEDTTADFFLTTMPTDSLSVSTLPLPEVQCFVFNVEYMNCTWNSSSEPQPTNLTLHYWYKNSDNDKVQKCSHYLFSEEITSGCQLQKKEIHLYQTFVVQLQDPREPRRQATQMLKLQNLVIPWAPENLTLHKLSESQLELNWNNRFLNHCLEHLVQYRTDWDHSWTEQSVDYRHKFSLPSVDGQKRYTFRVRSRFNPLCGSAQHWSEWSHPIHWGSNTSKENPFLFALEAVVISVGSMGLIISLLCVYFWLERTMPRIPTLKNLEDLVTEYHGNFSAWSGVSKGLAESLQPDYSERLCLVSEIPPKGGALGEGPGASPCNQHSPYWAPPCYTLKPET

“N88R/IL2 (from UniProt P60568 21-153) (ligand)” gave a Percentage of pSTAT5+ cells, Treg cells in human PBMC, 10^-8 M protein of 99.9%.
